In patent publication US20260265393A1 (SHANGHAI CELGEN BIO PHARMACEUTICAL, published 2026):
Values joined by “and” are separate entries in the source; they are usually repeats but may differ in a detail not shown here. Equal entries are not always repeated. Where two headings read alike, the source gives them in different places. Values belong to the binder of their own block, whether it stands above or below them.

Experiments:
mouse CD27 = target: T1, mouse CD27 (mouse, UniProt P41272 24-182, limits assumed); test: hybridoma screening; format not described
T1 sequence (looked up): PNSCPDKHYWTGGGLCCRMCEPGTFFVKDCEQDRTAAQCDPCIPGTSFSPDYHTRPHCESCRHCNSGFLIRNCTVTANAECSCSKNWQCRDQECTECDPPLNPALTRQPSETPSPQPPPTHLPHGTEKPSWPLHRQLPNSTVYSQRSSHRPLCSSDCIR

CD27-mFc (Kangdai) [1] = target: T2, CD27-mFc (Kangdai) (human, UniProt P26842 21-192, limits assumed); test: ELISA on coated CD27-mFc
T2 construct: Bought reagent; also called antigen CD27-mFc; solid-phase human CD27; not shown: mouse Fc (mFc)
T2 sequence (looked up): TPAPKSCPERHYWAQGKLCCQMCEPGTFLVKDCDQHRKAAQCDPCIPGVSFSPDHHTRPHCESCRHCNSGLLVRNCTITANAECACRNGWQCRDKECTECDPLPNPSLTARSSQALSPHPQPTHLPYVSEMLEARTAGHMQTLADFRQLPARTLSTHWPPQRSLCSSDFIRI

[2] = target: T3, human CD27 (transmembrane protein) on the cell membrane (human, UniProt P26842 20-260); test: flow cytometry on CHO cells expressing human CD27
T3 construct: whole, on cells; One molecule is used for CD27 on CHO-CD27 cells, on human PBMC T and B cells and on Jurkat reporter cells; also called CHO-CD27
T3 sequence (looked up): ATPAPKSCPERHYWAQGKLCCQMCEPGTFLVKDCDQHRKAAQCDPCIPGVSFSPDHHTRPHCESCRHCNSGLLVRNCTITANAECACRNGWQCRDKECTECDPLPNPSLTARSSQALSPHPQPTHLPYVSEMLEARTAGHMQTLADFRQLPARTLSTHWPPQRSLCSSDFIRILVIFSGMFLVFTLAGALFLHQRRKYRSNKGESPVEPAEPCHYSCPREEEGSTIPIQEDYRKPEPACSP

[3] = target: T4, antigen CD27 (soluble, as used in the BLI and SPR experiments) (UniProt P26842 21-192, limits assumed); test: BLI, antibody captured on AHC probe, CD27 in solution
T4 sequence (looked up): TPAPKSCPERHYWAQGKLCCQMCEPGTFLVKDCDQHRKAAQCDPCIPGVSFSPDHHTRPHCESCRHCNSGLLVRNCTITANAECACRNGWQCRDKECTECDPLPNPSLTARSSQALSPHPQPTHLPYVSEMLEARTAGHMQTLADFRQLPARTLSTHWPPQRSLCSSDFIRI

CD27-mFc (Kangdai) [4] = target: T2, CD27-mFc (Kangdai); test: ELISA on coated CD27-mFc; remark: listed apart in the source
[5] = target: T3, human CD27 (transmembrane protein) on …; test: flow cytometry on CHO cells expressing human CD27; remark: listed apart in the source
[6] = target: T4, antigen CD27 (soluble, as used in the …); test: SPR, Biacore T200, CM5 chip
CD27-mFc (Kangdai) [7] = target: T2, CD27-mFc (Kangdai); test: competition ELISA: CD70 coated, CD27-mFc plus antibody dilutions; competitor CD70
CD27-mFc (Kangdai) [8] = target: T2, CD27-mFc (Kangdai); test: as above; remark: listed apart in the source
CD27-mFc (Kangdai) [9] = target: T2, CD27-mFc (Kangdai); test: ELISA on coated CD27-mFc; remark: listed apart in the source
[10] = target: T5, human CD64 on CHO-K cells (CHO-CD64) (human, UniProt P12314 16-374); test: flow cytometry on CHO-CD64 cells, FITC anti-human Fc detection (Example 16)
T5 construct: whole, on cells; also called membrane CD64
T5 sequence (P12314 16-374): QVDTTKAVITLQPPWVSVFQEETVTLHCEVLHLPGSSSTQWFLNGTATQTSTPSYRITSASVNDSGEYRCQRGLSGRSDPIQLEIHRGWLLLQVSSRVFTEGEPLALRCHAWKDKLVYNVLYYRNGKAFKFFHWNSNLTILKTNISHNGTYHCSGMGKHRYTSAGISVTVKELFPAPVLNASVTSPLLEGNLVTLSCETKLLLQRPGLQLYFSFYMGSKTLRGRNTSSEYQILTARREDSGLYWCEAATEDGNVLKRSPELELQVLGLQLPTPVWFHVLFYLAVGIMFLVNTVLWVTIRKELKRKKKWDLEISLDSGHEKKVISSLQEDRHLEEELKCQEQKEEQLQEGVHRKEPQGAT

CD27-mFc (Kangdai) [11] = target: T2, CD27-mFc (Kangdai); test: ELISA on coated CD27-mFc (1 ug/mL), AP anti-human Fc detection, absorption at 405/490 nm (Example 15.2)
CD27-mFc (Kangdai) [12] = target: T2, CD27-mFc (Kangdai); test: competition ELISA: coated CD70 (1 ug/mL), CD27-mFc plus antibody dilution, HRP anti-mouse Fc detection, absorption at 450/655 nm (Example 15.3); blocked ligand CD70
[13] = target: T6, human CD32a on Jurkat cells (Jurkat-CD32a) (human, UniProt P12318 34-317); test: flow cytometry on Jurkat-CD32a cells, FITC anti-human Fc detection (Example 16)
T6 construct: whole, on cells; also called membrane CD32a
T6 sequence (looked up): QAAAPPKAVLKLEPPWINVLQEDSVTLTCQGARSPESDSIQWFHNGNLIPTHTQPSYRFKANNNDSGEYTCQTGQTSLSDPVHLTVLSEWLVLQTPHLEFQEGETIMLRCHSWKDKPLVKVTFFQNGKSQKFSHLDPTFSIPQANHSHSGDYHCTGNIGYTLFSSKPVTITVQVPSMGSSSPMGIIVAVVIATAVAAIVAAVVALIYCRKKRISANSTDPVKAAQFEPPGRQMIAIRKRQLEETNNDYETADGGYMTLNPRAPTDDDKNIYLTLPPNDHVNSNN

B6: 13B3-huH2L2 (P33426) humanized CD27 monoclonal antibody (antibody, V domains shown)
VH: QVQLVQSGAEVKKPGASVKVSCKTSGYAFSQSWMNWVRQAPGQGLEWIGRIYPGDGDTNYNGIFKGRVTLTADKSSSTAYMELSRLRSDDTAVYYCASMIRTTYVMDHWGQGTTVTVSS
VL: IVLTQSPDFQSVTPKEKVTITCRASQSVSNSLHWYQQKPDQSPKLLIMYTSQSISGVPSRFSGSGSGTDFTLTINSLEAEDAATYYCQQSNSWPLTFGGGTKLELK
notes: also called huVH2 + huVL2
EC50 (CD27-mFc (Kangdai) [4]): 0.0486 µg/mL and 0.325 nM
EC50 [5]: 0.221 µg/mL and 1.48 nM
IC50 (CD27-mFc (Kangdai) [7]): 1.92 µg/mL and 12.8 nM
Kd [6]: 0.643 nM
koff [6]: 0.00106 s⁻¹
kon [6]: 1.65e+06 M⁻¹ s⁻¹

B7: 13B3-huH2L3 (P33430) humanized CD27 monoclonal antibody (antibody, human IgG1)
heavy: not shown
VL: DIVLTQSPATLSVSPGERVTLSCRASQSVSNSLHWYQQKPGQAPRLLIMYTSQSISGIPARFSGSGSGTDFTLTISSVEPEDFAVYYCQQSNSWPLTFGGGTKLELK
notes: also called huVH2 + huVL3
EC50 (CD27-mFc (Kangdai) [4]): 0.0418 µg/mL and 0.28 nM
EC50 [5]: 0.211 µg/mL and 1.41 nM
IC50 (CD27-mFc (Kangdai) [7]): 1.95 µg/mL and 13.1 nM
Kd [6]: 0.391 nM
koff [6]: 0.000684 s⁻¹
kon [6]: 1.75e+06 M⁻¹ s⁻¹

B8: 13B3-huH3L4 (P33434) humanized CD27 monoclonal antibody (antibody, V domains shown)
VH: QVQLVQSGAEVKKPGASVKVSCKTSGYAFSQSWMNWVRQAPGQGLEWIGRIYPGDGDTNYNGIFQGRVTLTADTSISTAYMELSRLRSDDTAVYYCASMIRTTYVMDHWGQGTTVTVSS
VL: EIVLTQSPATLSLSPGERATLSCRASQSVSNSLHWYQQKPGQAPRLLIMYTSQSISGIPARFSGSGSGTDFTLTISSLEPEDFAVYYCQQSNSWPLTFGGGTKLELK
notes: also called huVH3 + huVL4
EC50 (CD27-mFc (Kangdai) [4]): 0.0361 µg/mL and 0.242 nM
EC50 [5]: 0.242 µg/mL and 1.62 nM
IC50 (CD27-mFc (Kangdai) [7]): 1.75 µg/mL and 11.7 nM

B10: 13B3-huH2L4 (P33433) humanized CD27 monoclonal antibody (antibody, human IgG1)
heavy: not shown
VL: EIVLTQSPATLSLSPGERATLSCRASQSVSNSLHWYQQKPGQAPRLLIMYTSQSISGIPARFSGSGSGTDFTLTISSLEPEDFAVYYCQQSNSWPLTFGGGTKLELK
notes: also called huVH2 + huVL4; parent antibody (wild-type)
EC50 (CD27-mFc (Kangdai) [4]): 0.0409 µg/mL and 0.274 nM
EC50 [5]: 0.224 µg/mL and 1.5 nM
IC50 (CD27-mFc (Kangdai) [7]): 1.91 µg/mL and 12.8 nM
IC50 (CD27-mFc (Kangdai) [8]): 1.31 µg/mL
EC50 (CD27-mFc (Kangdai) [9]): 0.029 µg/mL
EC50 (read off the curve) [10]: ~0.7 µg/mL

B11: 13B3-huH2L3 (LALA) variant antibody (antibody, human IgG1, L234A L235A)
heavy: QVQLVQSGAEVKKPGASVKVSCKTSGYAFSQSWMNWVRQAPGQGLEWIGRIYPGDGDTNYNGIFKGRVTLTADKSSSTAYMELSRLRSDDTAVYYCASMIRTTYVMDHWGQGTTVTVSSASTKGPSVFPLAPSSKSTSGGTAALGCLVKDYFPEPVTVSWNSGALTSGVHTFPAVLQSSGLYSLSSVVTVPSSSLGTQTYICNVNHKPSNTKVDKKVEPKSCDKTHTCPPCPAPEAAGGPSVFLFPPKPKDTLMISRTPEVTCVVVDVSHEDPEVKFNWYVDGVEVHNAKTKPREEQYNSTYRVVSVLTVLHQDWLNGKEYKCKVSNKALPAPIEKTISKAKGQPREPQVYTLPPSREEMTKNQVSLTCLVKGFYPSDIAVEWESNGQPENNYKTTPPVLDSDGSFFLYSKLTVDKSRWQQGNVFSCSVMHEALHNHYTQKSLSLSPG
VL: DIVLTQSPATLSVSPGERVTLSCRASQSVSNSLHWYQQKPGQAPRLLIMYTSQSISGIPARFSGSGSGTDFTLTISSVEPEDFAVYYCQQSNSWPLTFGGGTKLELK
notes: The light chain is that of 13B3-huH2L3 (huVL3)
IC50 (CD27-mFc (Kangdai) [8]): 1.09 µg/mL
EC50 (CD27-mFc (Kangdai) [11]): 0.037 µg/mL

B12: 13B3-huH2L4 (LALA) variant antibody (antibody, human IgG1, L234A L235A)
heavy: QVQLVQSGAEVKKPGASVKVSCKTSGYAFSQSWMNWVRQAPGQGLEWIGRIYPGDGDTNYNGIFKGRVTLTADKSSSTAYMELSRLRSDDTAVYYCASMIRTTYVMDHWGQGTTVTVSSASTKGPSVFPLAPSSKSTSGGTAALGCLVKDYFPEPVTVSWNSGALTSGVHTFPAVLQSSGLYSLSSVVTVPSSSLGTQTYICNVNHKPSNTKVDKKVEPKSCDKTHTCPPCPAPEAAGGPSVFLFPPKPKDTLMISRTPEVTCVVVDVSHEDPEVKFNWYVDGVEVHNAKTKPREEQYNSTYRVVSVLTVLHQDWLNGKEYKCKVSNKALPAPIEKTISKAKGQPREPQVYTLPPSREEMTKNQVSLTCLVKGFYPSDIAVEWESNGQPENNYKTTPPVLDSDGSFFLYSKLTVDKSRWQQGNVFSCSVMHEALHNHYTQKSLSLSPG
VL: EIVLTQSPATLSLSPGERATLSCRASQSVSNSLHWYQQKPGQAPRLLIMYTSQSISGIPARFSGSGSGTDFTLTISSLEPEDFAVYYCQQSNSWPLTFGGGTKLELK
notes: The light chain is that of 13B3-huH2L4 (huVL4); also called mutant antibody
IC50 (CD27-mFc (Kangdai) [12]): 1.12 µg/mL
EC50 (CD27-mFc (Kangdai) [9]): 0.029 µg/mL
binding result [13]: no binding (tested: 10 µg/mL)
binding result [10]: no binding (tested: 10 µg/mL)

Now from value to binder:

binding result (mouse CD27): no binding
B1: 13B3 anti-human CD27 mouse monoclonal antibody (hybridoma clone) (antibody, V domains shown)
VH: QVQLQQSGPEQVKPGASVKISCKTSGYAFSQSWMNWVKQRPGQGLEWIGRIYPGDGDTNYNGIFKGKATLTADKSSSTAYMQLSSLTSLDSAVYFCASMIRTTYVMDHWGQGTSVTVTS
VL: DIVLTQSPATLSVTPGDSVSLSCRASQSVSNSLHWYQQKSHESPRLLIMYTSQSISGIPSRFSGSGSGTDFTLSINSVETEDFGMYFCQQSNSWPLTFGAGTKLELK
notes: also called 16B1-1-1

binding result (mouse CD27): no binding
B2: 16B1 anti-human CD27 mouse monoclonal antibody (hybridoma clone) (antibody, V domains shown)
VH: QVQLQQSGPEQVKPGASVKISCKTSGYAFSQSWMNWVKQRPGQGLEWIGRIYPGDGDTNYNGIFKGKATLTADKSSSTAYMQLSSLTSLDSAVYFCASMIRTTYVMDHWGQGTSVTVTS
VL: DIVLTQSPATLSVTPGDSVSLSCRASQSVSNSLHWYQQKSHESPRLLIMYTSQSISGIPSRFSGSGSGTDFTLSINSVETEDFGMYFCQQSNSWPLTFGAGTKLELK
notes: Tested as hybridoma supernatant; also called 16B1-1-1

EC50 (CD27-mFc (Kangdai) [1]): 0.0754 µg/mL
EC50 [2]: ~90.6 µg/mL
Kd [3]: 1.3 nM
koff [3]: 0.00016 s⁻¹
kon [3]: 123000 M⁻¹ s⁻¹
B3: 17H8-hFc human-mouse chimeric CD27 monoclonal antibody (antibody, V domains shown)
VH: EVKLEESGGGLVQPGGSMKLSCVASGFTFSNYWMNWVRQSPEKGLEWVAEIRLKSNNYATYYAESVKGRFTISRDDSKSSVYLQMNSLRGEDTGIYYCTLYDSSYYYAMDYWGQGTSVTVSS
VL: DVVLTQTPLSLPVNIGDQASISCKSTQSLLHSDGFTYLDWYLQKPGQSPQLLIYLVSNRFLGVPDRFSGSGSRTDFTLKISRVEAEDLGVYYCFQSNYLPLTFGGGTKLEI
notes: Mouse 17H8 variable regions on human constant regions

binding result (mouse CD27): no binding
B4: 17H8 anti-human CD27 mouse monoclonal antibody (hybridoma clone) (antibody, V domains shown)
VH: EVKLEESGGGLVQPGGSMKLSCVASGFTFSNYWMNWVRQSPEKGLEWVAEIRLKSNNYATYYAESVKGRFTISRDDSKSSVYLQMNSLRGEDTGIYYCTLYDSSYYYAMDYWGQGTSVTVSS
VL: DVVLTQTPLSLPVNIGDQASISCKSTQSLLHSDGFTYLDWYLQKPGQSPQLLIYLVSNRFLGVPDRFSGSGSRTDFTLKISRVEAEDLGVYYCFQSNYLPLTFGGGTKLEI
notes: also called 17H8-1-1

EC50 (CD27-mFc (Kangdai) [4]): 0.0371 µg/mL and 0.249 nM
EC50 [5]: 0.19 µg/mL and 1.27 nM
Kd [6]: 0.699 nM
koff [6]: 0.00135 s⁻¹
kon [6]: 1.93e+06 M⁻¹ s⁻¹
B5: 13B3-huH4L1 (P33425) humanized CD27 monoclonal antibody (antibody, V domains shown)
VH: QVQLVQSGAEVKKPGASVKVSCKTSGYAFSQSWMNWVRQAPGQGLEWMGRIYPGDGDTNYAQKFQGRVTMTADTSISTAYMELSRLRSDDTAVYYCASMIRTTYVMDHWGQGTTVTVSS
VL: EIVLTQSPDFLSVTPKEKVTLTCRASQSVSNSLHWYQQKPDQSPKLLIMYTSQSISGIPSRFSGSGSGTDFTLTINSVEAEDAATYYCQQSNSWPLTFGGGTKLELK
notes: also called huVH4 + huVL1

IC50 (CD27-mFc (Kangdai) [7]): 1.91 µg/mL and 12.8 nM
B9: 13B3-huH4L3 (P33432) humanized CD27 monoclonal antibody (antibody, V domains shown)
VH: QVQLVQSGAEVKKPGASVKVSCKTSGYAFSQSWMNWVRQAPGQGLEWMGRIYPGDGDTNYAQKFQGRVTMTADTSISTAYMELSRLRSDDTAVYYCASMIRTTYVMDHWGQGTTVTVSS
VL: DIVLTQSPATLSVSPGERVTLSCRASQSVSNSLHWYQQKPGQAPRLLIMYTSQSISGIPARFSGSGSGTDFTLTISSVEPEDFAVYYCQQSNSWPLTFGGGTKLELK
